The record followed here is publication PMC3978166, “A new unconventional HLA-A2-restricted epitope from HBV core protein elicits antiviral cytotoxic T lymphocytes” (Protein & Cell, 2014).

Assay [1] deals with HLA-A*0201 molecules on T2 cells (human (endogenous in T2)). Kind of assay: flow cytometry on cells.
Assay [2] addresses HLA-A*0201 molecules (Homo sapiens, UniProt P04439, D140Y/D185E/D98H/E176V/E277Q/G131W/G231S/I119V/I121R/I166T/I218V/L300P/L318F/N151K/N90K/P208A/P217A/Q86G/Q94H/R138H/R169H/T345S). Kind of assay: T2 binding assay (MHC stabilization assay with T2 cells, flow cytometry). Particulars: FI = (mean FITC fluorescence with peptide − without peptide)/(without peptide), high affinity FI ≥1, representative of three independent experiments. Format: cell-based. The source says: (A) The overlapping method of 8 aa overlap was used to synthesize a total of 191 nonapeptides covering HBc aa 1–150. […] (C and D) Measurement of the binding affinity of HBc141–149N- or C-terminally truncated (C) or extended (D) peptides to HLA-A*0201. HBc82-90 served as a negative control (NC). (E) In vitro refolding of HBC141–149 peptide with HLA-A*0201 heavy chain and β2m. Gel filtration chromatography was used to analyze the refolded complexes on a Superdex200 16/60 column. […] The HLA complex (peak 2) was analyzed by SDS-PAGE electrophoresis and coomassie blue staining
T2 cells were used to perform MHC stabilization assays as previously described (Zhou et al., [2006]). The binding activity of each peptide was calculated as the fluorescent index (FI), and the FI was determined by: (mean FITC fluorescence with the given peptide − mean FITC fluorescence without peptide) (mean FITC fluorescence without peptide).
For orientation: A flow cytometer gives signals particle by particle.

Assay [3] concerns peptide-specific CTLs. In words: Ex vivo IFN-γ ELISPOT on PBMCs from HLA-A2+ AHB patients. Particulars: PBMCs 2 × 10^5/well from HLA-A2+ AHB patients (n = 19), 50 μg/mL peptide; mean ± SD (Fig. 3D). Format: cell-based, human.
Description: (D) AHB patients (n = 29) were divided into HLA-A2-positive (n = 19) and HLA-A2-negative (n = 10) groups. PBMCs (2 × 10^5/well) from these patients were stimulated with the indicated peptides for detection of peptide-specific CTLs by ELISPOT assay. […] PBMCs from HLA-A2- patients were used for specificity evaluation of CTLs. Paired samples t-tests were used for ELISPOT assay in AHB patients. *P < 0.05 and **P < 0.01 by t-test. Data are representative of two independent experiments
A total of 29 AHB patients were enrolled for blood collection, which were divided into two groups: HLA-A2-positive (n = 19) and HLA-A2-negative (n = 10). All patients were negative for HCV, HDV, and HIV-1 infection. 10 mL of blood samples were collected from each patient.
To detect epitope-specific T cells, enzyme-linked immunosorbent spot (ELISPOT) assay was performed according to the manufacturer’s instruction. Briefly, ninety-six well PVDF plates (BD-Pharmigen, San Diego, CA) were precoated overnight at 4°C with the coating Ab and blocked for 1 h at 37°C. Patient PBMCs (2 × 10^5) or murine splenocytes (10^6) were added to each well together with 50 μg/mL of peptide and incubated at 37°C for 24–48 h with phytohemagglutinin (PHA)-stimulated T cells as positive controls. Each test was performed at least in triplicate. The spots were counted and analyzed using an ELISPOT Reader (Cellular Technology Ltd, USA).
Assay [4] concerns peptide-specific CTLs. Kind of assay: IFN-γ ELISPOT on splenocytes of immunized HLA-A2.1/Kb transgenic mice. The assay is classed as in vivo. Conditions: female HLA-A2.1/Kb mice, HBc DNA prime/peptide boost with gp96 adjuvant, 1 week after last immunization; 5 × 10^5 splenocytes; mean ± SD of five mice (Fig. 3A). How it is done:
Figure 3 Detection of HBc141–149 peptide-specific CD8 ^+ T cell response in HLA-A2.1/Kb mice and AHB patients. Female HLA-A2.1/Kb transgenic mice were immunized with an HBV DNA prime/peptide boost regimen at weeks 1, 3, and 4. […] (B and C) 293T cells labeled with CFSE were transfected with pHBV1.3 as target cells (B), and T2 cells labeled with CFSE were loaded with 20 μg/mL peptide at 37°C for 1 h as target cells (C). […] After 4 h, the mixed samples were stained with PI, and the killing of target cells were analyzed by FACS. The data shown are the mean ± SD of five mice. (D) AHB patients (n = 29) were divided into HLA-A2-positive (n = 19) and HLA-A2-negative (n = 10) groups. PBMCs (2 × 10^5/well) from these patients were stimulated with the indicated peptides for detection of peptide-specific CTLs by ELISPOT assay. HBc82–90 peptide served as negative control for background evaluation in ELISPOT assay. PBMCs from HLA-A2- patients were used for specificity evaluation of CTLs. Paired samples t-tests were used for ELISPOT assay in AHB patients. *P < 0.05 and **P < 0.01 by t-test. Data are representative of two independent experiments […]
To detect epitope-specific T cells, enzyme-linked immunosorbent spot (ELISPOT) assay was performed according to the manufacturer’s instruction. […] The spots were counted and analyzed using an ELISPOT Reader (Cellular Technology Ltd, USA).

The substance HBc60–68 (V60) peptide displayed an FI (fluorescent index) in assay [1] of 2.64.
Regarding HBc140–149 peptide, the FI (fluorescent index) in assay [1] is 0.033.
On the same count and under the same terms, the figure for HBc141–148 peptide is 0.124.
The substance HBc141–149 peptide displayed an FI (fluorescent index) in assay [1] of 2.41.
Take HBc141–150 peptide: in assay [1], the FI (fluorescent index) was found to be 0.005.
Still for that read-out and setting: in the case of HBc142–149 peptide it was 0.151.
Regarding “LSTLPETTVV [HBc140–149, extended decapeptide of HBc141–149, […]]”, the “FI (fluorescent index), binding to HLA-A*0201” value (“FI (fluorescent index), binding” below) in assay [2] is reported as 0.033.
RELVVSYVN [HBc82–90]: the “peptide-specific CTL response, ex vivo IFN-γ ELISPOT” value in assay [3] came to 20.94 ± 17.57. The “peptide-specific CTL response, IFN-γ ELISPOT (SFC)” value in assay [4] was “No peptide-specific CD8^+ T cell response was detected”.
Consider STLPETTV [HBc141–148], for which, in assay [2], the “FI (fluorescent index), binding” value was 0.124.
On to TLPETTVV [HBc142–149], for which the “FI (fluorescent index), binding” value in assay [2] is 0.151.
